Source: patent US20040072256A1

Key:
[1] = molecular target: hemagglutinin (HA) of Influenza virus A/PR/8/34 (H1N1) (Influenza virus A/PR/8/34 (H1N1)) (UniProt P03452); assay: cell-based or functional assay
[2] = molecular target: hemagglutinin-neuraminidase (HN) glycoprotein of Sendai virus (Sendai virus); assay: flow cytometry on SV-infected 721.221 cells, no mAb
[3] = molecular target: hemagglutinin (HA) of Influenza virus A/PR/8/34 (H1N1) (Influenza virus A/PR/8/34 (H1N1)) (UniProt P03452); assay: flow cytometry on IV-infected 1106mel cells, no mAb
[4] = molecular target: hemagglutinin-neuraminidase (HN) glycoprotein of Sendai virus (Sendai virus); assay: flow cytometry, SV-infected vs uninfected 721.221 cells
[5] = molecular target: hemagglutinin (HA) of Influenza virus A/PR/8/34 (H1N1) (Influenza virus A/PR/8/34 (H1N1)) (UniProt P03452); assay: flow cytometry, IV-infected vs uninfected 1106mel cells
[6] = molecular target: hemagglutinin-neuraminidase (HN) glycoprotein of Sendai virus (Sendai virus); assay: flow cytometry, 293T cells transfected with Sendai HN cDNA vs mock
[7] = molecular target: hemagglutinin-neuraminidase (HN) glycoprotein of Sendai virus (Sendai virus); assay: flow cytometry on SV-infected 721.221 cells pre-incubated with competitor 135.7 (anti-HN)
[8] = molecular target: hemagglutinin-neuraminidase (HN) glycoprotein of Sendai virus (Sendai virus); assay: flow cytometry on SV-infected 721.221 cells pre-incubated with competitor TC-9A1 (anti-F)
[9] = molecular target: hemagglutinin-neuraminidase (HN) glycoprotein of Sendai virus (Sendai virus); assay: flow cytometry on SV-infected 721.221 cells pre-incubated with competitor TC-1D6 (anti-HN)
[10] = molecular target: hemagglutinin-neuraminidase (HN) glycoprotein of Sendai virus (Sendai virus); assay: flow cytometry on SV-infected 721.221 cells pre-incubated with competitor TC-9C1 (anti-HN)
[11] = molecular target: hemagglutinin (HA) of Influenza virus A/PR/8/34 (H1N1) (Influenza virus A/PR/8/34 (H1N1)) (UniProt P03452); assay: flow cytometry on IV-infected 1106mel cells pre-incubated with competitor H17-L2 (anti-HA)
[12] = molecular target: hemagglutinin (HA) of Influenza virus A/PR/8/34 (H1N1) (Influenza virus A/PR/8/34 (H1N1)) (UniProt P03452); assay: flow cytometry on IV-infected 1106mel cells pre-incubated with competitor H28-E23 (anti-HA)
[13] = molecular target: hemagglutinin (HA) of Influenza virus A/PR/8/34 (H1N1) (Influenza virus A/PR/8/34 (H1N1)) (UniProt P03452); assay: flow cytometry on IV-infected 1106mel cells pre-incubated with NA2-1C1 (anti-NA, blocks neuraminidase activity)
[14] = molecular target: hemagglutinin-neuraminidase (HN) glycoprotein of Sendai virus (Sendai virus); assay: cell-based or functional assay

Substance | hemagglutination inhibition (IV-mediated agglutination of sheep erythrocytes) [1] [µM] | MFI NKp46-Ig binding [2] [MFI] | MFI NKp46-Ig binding [3] [MFI] | fold increase in staining on SV infection [4] [fold] | fold increase in binding on IV infection [5] [fold] | fold increase in staining on HN transfection [6] [fold] | MFI NKp46-Ig binding [7] [MFI] | MFI NKp46-Ig binding [8] [MFI] | MFI NKp46-Ig binding [9] [MFI] | MFI NKp46-Ig binding [10] [MFI] | MFI NKp46-Ig binding [11] [MFI] | MFI NKp46-Ig binding [12] [MFI] | MFI NKp46-Ig binding [13] [MFI] | lysis of HN-transfected 293T cells by NK line NK-GAL (35S-release) [14] [fold]
NKp46-Ig fusion protein (Fc fusion) | 2 | 74 | 441 | 10 | 4 | 2 | 22 | 63 | 14 | 18 | 145 | 63 | 980 | 
NKp46 receptor on NK cells (from UniProt O76036 22-304) |  |  |  |  |  |  |  |  |  |  |  |  |  | > 4
